According to the supplement of paper PMC11865577:

Columns and labels:
Assay in all cases: pull-down binding Z-score (relative to library population); higher = stronger binding
TO-N3 (biotin conjugate) = conditions: RNA library: Library-2
Method in brief: (§1)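 Cy5- or Cy3-end-labelled RNA library (1 μg) was heat-folded in phosphate/NaCl/KCl buffer and incubated 60 min at 25 °C with streptavidin beads carrying 100 pmol biotin-conjugated small molecule. After three washes, bound RNA was eluted in hot SDS and hybridised 20 h at 55.5 °C to a DNA barcode microarray. Binding was scored by subtracting a beads-only control, averaging barcoded replicate probes after dropping highest and lowest, and converting to a Z-score against library mean and standard deviation.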

[1] = test system: G-clamp-N3 (biotin conjugate); conditions: RNA library: Library-1 (pre-miRNA loops + repeats)
Method in brief: as §1

[2] = test system: TO-3-N3 (biotin conjugate); conditions: RNA library: Library-2
Method in brief: as §1

[3] = test system: TO-3-N3-2 (biotin conjugate); conditions: RNA library: Library-2
Method in brief: as §1

[4] = test system: TO-N3-2 (biotin conjugate); conditions: RNA library: Library-2
Method in brief: as §1

| Sequence | pull-down binding Z-score (TO-N3 (biotin conjugate)) | pull-down binding Z-score [1] | pull-down binding Z-score [2] | pull-down binding Z-score [3] | pull-down binding Z-score [4] |
| --- | --- | --- | --- | --- | --- |
| CAUUUCAGCGUAUAUAUGUAUAUGUGGCUGUG [hsa-mir-19b-2] | 1.11 | 2.71 | 1.07 | 0.559 | 0.0211 |
| CAUUUCCUUCAUGAUUAGGAAUACUACUUUGAAAUG [hsa-mir-4712] | -0.856 | -0.338 | -0.641 | -0.179 | -0.896 |
| CAUUUGUGGCAUGGACCAUUUGUG [hsa-mir-4504] | -0.959 | -0.183 | -0.874 | -0.518 | -0.813 |
| CCAAAGAAACUUUUUUGG [hsa-mir-6079] | -0.761 | -0.295 | -0.414 | -0.557 | -1.1 |
| CCAAAUCAGAAAAGGAUUUGG [hsa-mir-4520-1] | -0.698 | 4.83 | -0.497 | -0.242 | -0.892 |
| CCAAAUCCUUUUCUGAUUUGG [hsa-mir-4520-2] | -1.03 | -0.824 | -0.645 | -0.574 | -1.69 |
| CCAAAUUUCAUGCG [hsa-mir-4454] | 0.0342 | -1.72 | -0.0597 | -0.18 | -0.0452 |
| CCAAGCUUAGUUUGG [hsa-mir-1302-11_1302-10_1302-3_1302-2_1302-9] | 0.572 | 0.00542 | 0.74 | -0.446 | -0.61 |
| CCAAGGCUCUGGGGUCUCACCCUUGG [hsa-mir-6842] | 0.386 | 0.754 | 0.484 | -0.394 | 0.0499 |
| CCAAGGUUGUGCUUUUAGGAAAUGUUGGCUGUCCUGCGG [hsa-mir-5739] | -0.157 | 0.485 | -0.448 | 0.205 | 0.49 |
| CCAAGUCUGACCACCUGAGGAAUGCCUGG [hsa-mir-1269a] | -0.288 | -0.858 | -0.498 | -0.335 | 0.719 |
| CCAAUGGUAUCCAGUGAUUCGUUGA [hsa-mir-4709] | -0.0552 | -0.854 | -0.486 | -0.442 | 0.186 |
| CCACAUAGGAGGGACAGCGGCCUUUCCAACAGG [hsa-mir-9500] | 0.58 | -0.994 | 0.253 | 0.043 | 0.847 |
| CCACCCACCAGGGAGCUUUCCAUGGGCUGUGGG [hsa-mir-4725] | 0.567 | 1.47 | 0.47 | 0.0654 | 0.788 |
| CCACGGGCUGGGCACAGUGG [hsa-mir-3159] | 1.18 | 1.07 | 1.04 | 0.391 | 0.891 |
| CCACUACCGGUGA [hsa-mir-4658] | -0.127 | -0.573 | -0.207 | -0.309 | -0.288 |
| CCACUGGGAAUGCUCCCUGAGGACGUUAUAUGAGUG [hsa-mir-4319] | 0.802 | 0.953 | 0.544 | 0.399 | 0.872 |
| CCAGGCCACAUAAUGAGCCAAA [hsa-mir-6771] | 0.899 | -1.04 | 0.665 | 0.198 | 0.607 |
| CCAGGCCCCACGGAGAACCAGGGCACCUGG [hsa-mir-8058] | -0.188 | 0.303 | -0.288 | -0.353 | 0.492 |

| Sequence | pull-down binding Z-score (TO-N3 (biotin conjugate)) | pull-down binding Z-score [1] | pull-down binding Z-score [2] | pull-down binding Z-score [3] | pull-down binding Z-score [4] |
| --- | --- | --- | --- | --- | --- |
| CCAGGUUCCAUGUGAUGCUGAA [hsa-mir-6806] | 0.316 | 0.154 | -0.162 | 0.299 | 0.575 |
| CCAGUGCUGGGCUCAGACCCUGG [hsa-mir-150] | 0.0645 | 0.197 | -0.0352 | -0.226 | 0.701 |
| CCAGUGGUUUUCCUUGACUGUG [hsa-mir-298] | -0.416 | 1.54 | -0.421 | -0.472 | 0.0607 |
| CCAUAAGCUGUCUAAAACUUCG [hsa-mir-4513] | -0.327 | -1.21 | -0.354 | -0.153 | -0.0485 |
| CCAUACAAUAUUUGG [hsa-mir-1302-1] | -0.898 | -1.2 | -0.642 | -0.406 | -1.09 |
| CCAUCAAGCCCCACCAGAAGGUGGAGGCCCAGGUGAG [hsa-mir-4721] | 0.16 | -1.36 | 0.105 | -0.479 | 0.864 |
| CCAUGCAACAUUUGG [hsa-mir-1302-4] | -0.359 | 0.29 | -0.262 | -0.327 | -0.696 |
| CCAUGCUGUUUAAGCCUAGCAUAG [hsa-mir-4423] | 0.208 | -0.374 | 0.0223 | -0.16 | 0.476 |
| CCAUGGGGGCCUUGCUGUGU [hsa-mir-6808] | 1.28 | 1.56 | 1.05 | 0.335 | 1.04 |
| CCAUGGUGUGCUCUGAUCCCCCUGUGG [hsa-mir-6848] | 0.592 | -0.373 | 0.35 | 0.0413 | 0.49 |
| CCAUGUAAUCUUUGG [hsa-mir-1302-5] | 0.454 | -0.454 | 0.507 | 0.112 | -0.0743 |
| CCAUGUGAGUGAAGCCUGAUCAUCAUGUG [hsa-mir-8070] | -0.232 | -0.0843 | -0.67 | -0.318 | 0.588 |
| CCAUGUGGUUGCGAGGUAUGAGUAAAACAUGG [hsa-mir-218-1] | -0.567 | -0.319 | -0.697 | -0.174 | 0.275 |
| CCAUUAUUGCUACUGUUCAGCAGGUGCUGCUGGUGGUGAUGG [hsa-mir-1260b] | 0.244 | -0.182 | 0.0654 | -0.25 | -0.182 |
| CCAUUAUUUUUAAUAAUUAUAAUAAUGG [hsa-mir-548s] | -0.233 | 0.705 | 0.0929 | -0.237 | -1.2 |
| CCAUUUACUUGAACCUUUAGGAGUGA [hsa-mir-489] | 0.319 | -0.68 | 0.389 | -0.05 | 0.625 |
| CCCAAACUUGGAGCACUUGACCUUUGGC [hsa-mir-4687] | 0.815 | -1.02 | 0.611 | 0.268 | 0.804 |
| CCCAAGCAGGCUUUGUGUGAGCAGUGAGGCUAUUUAUUCACUUGGGUGCGAGCUCACACGAAGCCUGCUUGGG [hsa-mir-6839] | 0.551 | 1.44 | 0.33 | 0.815 | 0.665 |
| CCCACCAUGUACCAGUGGG [hsa-mir-4422] | -0.813 | -1.07 | -0.343 | -0.535 | -0.708 |

| Sequence | pull-down binding Z-score (TO-N3 (biotin conjugate)) | pull-down binding Z-score [1] | pull-down binding Z-score [2] | pull-down binding Z-score [3] | pull-down binding Z-score [4] |
| --- | --- | --- | --- | --- | --- |
| CCCACCCUGAGUUUUGGUGGG [hsa-mir-6508] | -0.245 | -0.873 | -0.066 | -0.26 | -1.22 |
| CCCACCUCCAGCAUUGGG [hsa-mir-1267] | -0.663 | -0.68 | -0.458 | -0.393 | -0.466 |
| CCCACGGCCCUUGUCAGUGUG [hsa-mir-3190] | 0.809 | -1.69 | 0.791 | -0.14 | 0.517 |
| CCCACGUCGCAUGCGCCCCGGGAAAGCGUGGG [hsa-mir-3180-1_3180-3_3180-2] | 0.682 | 1.94 | 0.614 | -0.158 | 0.515 |
| CCCACUCCAAAGUUCACAGAAUGGGUGG [hsa-mir-541] | 1.8 | 0.626 | 2.05 | 0.837 | 1.15 |
| CCCACUUCCUGGA [hsa-mir-4260] | -0.494 | -0.562 | -0.513 | -0.529 | -0.0316 |
| CCCAGAGAAAGCCUGAACGUUGGG [hsa-mir-585] | 0.119 | -0.188 | -0.148 | 0.0232 | 0.386 |
| CCCAGCCUUCCAGAGUUGGUGCCAGG [hsa-mir-4476] | 1.14 | -0.593 | 0.892 | 0.0973 | 1.11 |
| CCCAGCCUUGGCGUUCAGGUGCUGAG [hsa-mir-3150b] | -0.022 | -0.3 | -0.0824 | -0.23 | 0.723 |
| CCCAGCUUUGUGACUGUAAGUGUUGGA [hsa-mir-184] | 0.723 | 0.351 | 0.669 | 0.088 | 0.734 |
| CCCAUAAGGGUCGAAUGGG [hsa-mir-4713] | 0.272 | -0.205 | 0.401 | -0.0623 | 0.0587 |
| CCCAUAUAAUAUUAGGGG [hsa-mir-4483] | -0.783 | 2.5 | -0.469 | 0.176 | -0.667 |
| CCCAUAUGAACAUACAAUGCUAUGGA [hsa-mir-1-2] | -0.569 | -0.76 | -0.62 | -0.224 | -0.206 |
| CCCAUAUGGACCUGCUAAGCUAUGGA [hsa-mir-1-1] | 0.289 | -0.475 | -0.0116 | -0.0364 | 0.361 |
| CCCAUAUGGAUUACUUUGCUAUGGA [hsa-mir-206] | 0.036 | -0.287 | 0.0156 | -0.188 | 0.0791 |
| CCCAUUUAAAAUAUGGAA [hsa-mir-548ai] | 0.322 | -2.02 | 0.535 | -0.0892 | -0.0504 |
| CCCCCAAUUAAAGUAGAUUGGGGG [hsa-mir-3153] | -0.725 | 0.917 | -0.415 | -0.696 | -1.29 |
| CCCCGCGCGCGGACAGACACACGGACAAGUCCCGCCAGGGG [hsa-mir-4492] | 1.59 | -0.362 | -0.131 | -0.38 | 4.65 |
| CCCGAGCUGGGCAGCAUGAAGGGCCUCGGG [hsa-mir-486-2] | 1.64 | 3.94 | 1.74 | 0.949 | 1.49 |
